The series “atomic force microscopy” concerns the molecule itself. Description: atomic force microscopy.
In the next series the target is SecA (wild type) (E. coli, UniProt P10408 1-901). Description: atomic force microscopy.

B1: SecAC4Q801C, cross-linked dimeric species (SecA C98S, C885S, C887S, C896S, Q801C) (enzyme)
chain: MLIKLLTKVFGSRNDRTLRRMRKVVNIINAMEPEMEKLSDEELKGKTAEFRARLEKGEVLENLIPEAFAVVREASKRVFGMRHFDVQLLGGMVLNERSIAEMRTGEGKTLTATLPAYLNALTGKGVHVVTVNDYLAQRDAENNRPLFEFLGLTVGINLPGMPAPAKREAYAADITYGTNNEYGFDYLRDNMAFSPEERVQRKLHYALVDEVDSILIDEARTPLIISGPAEDSSEMYKRVNKIIPHLIRQEKEDSETFQGEGHFSVDEKSRQVNLTERGLVLIEELLVKEGIMDEGESLYSPANIMLMHHVTAALRAHALFTRDVDYIVKDGEVIIVDEHTGRTMQGRRWSDGLHQAVEAKEGVQIQNENQTLASITFQNYFRLYEKLAGMTGTADTEAFEFSSIYKLDTVVVPTNRPMIRKDLPDLVYMTEAEKIQAIIEDIKERTAKGQPVLVGTISIEKSELVSNELTKAGIKHNVLNAKFHANEAAIVAQAGYPAAVTIATNMAGRGTDIVLGGSWQAEVAALENPTAEQIEKIKADWQVRHDAVLEAGGLHIIGTERHESRRIDNQLRGRSGRQGDAGSSRFYLSMEDALMRIFASDRVSGMMRKLGMKPGEAIEHPWVTKAIANAQRKVESRNFDIRKQLLEYDDVANDQRRAIYSQRNELLDVSDVSETINSIREDVFKATIDAYIPPQSLEEMWDIPGLQERLKNDFDLDLPIAEWLDKEPELHEETLRERILAQSIEVYQRKEEVVGAEMMRHFEKGVMLQTLDSLWKEHLAAMDYLRQGIHLRGYAQKDPKCEYKRESFSMFAAMLESLKYEVISTLSKVQVRMPEEVEELEQQRRMEAERLAQMQQLSHQDDDSAAAAALAAQTGERKVGRNDPSPSGSGKKYKQSHGRLQ
modifications: cross-linked dimer (so in the source); the chemistry of the cross-link is not told
B1: in “atomic force microscopy”, the binding result is listed as “binds”.

B2: SecYEG translocon (SecY C329S, C385S; His-tagged SecE; SecG) (complex)
chain 1: MAKQPGLDFQSAKGGLGELKRRLLFVIGALIVFRIGSFIPIPGIDAAVLAKLLEQQRGTIIEMFNMFSGGALSRASIFALGIMPYISASIIIQLLTVVHPTLAEIKKEGESGRRKISQYTRYGTLVLAIFQSIGIATGLPNMPGMQGLVINPGFAFYFTAVVSLVTGTMFLMWLGEQITERGIGNGISIIIFAGIVAGLPPAIAHTIEQARQGDLHFLVLLLVAVLVFAVTFFVVFVERGQRRIVVNYAKRQQGRRVYAAQSTHLPLKVNMAGVIPAIFASSIILFPATIASWFGGGTGWNWLTTISLYLQPGQPLYVLLYASAIIFFSFFYTALVFNPRETADNLKKSGAFVPGIRPGEQTAKYIDKVMTRLTLVGALYITFISLIPEFMRDAMKVPFYFGGTSLLIVVVVIMDFMAQVQTLMMSSQYESALKKANLKGYGR
chain 2: MSANTEAQGSGRGLEAMKWVVVVALLLVAIVGNYLYRDIMLPLRALAVVILIAAAGGVALLTTKGKATVAFAREARTEVRKVIWPTRQETLHTTLIVAAVTAVMSLILWGLDGILVRLVSFITGLRF
chain 3: MYEALLVVFLIVAIGLVGLIMLQQGKGADMGASFGAGASATLFGSSGSGNFMTRMTALLATLFFIISLVLGNINSNKTNKGSEWENLSAPAKTEQTQPAAPAKPTSDIPN
Turning to B2, the binding result with SecA (wild type) is “binds”.

The values are drawn from article PMC6561738 (Science Advances, 2019).
